Experimental data published in patent US20110293558A1, “MATERIAL PROPERTIES OF T CELLS AND RELATED METHODS AND COMPOSITIONS” (Massachusetts Institute of Technology, priority 2010, published 2011).
Entries after “also recorded” stand apart in the source; their conditions may differ.

B1: CCL19: chemokine CCL19 (R&D Systems) used as chemoattractant for T cells (protein, UniProt Q99731 22-98, looked up)
C-C motif chemokine 19: GTNDAEDCCLSVTQKPIPGYIVRNFHYLLIKDGCRVPAVVFTTLRGRQLCAPPDQPWVERIIQRLQRTSAKMKRRSS

Assays:
[1] = tested on: Acute promyelocytic leukemia cells; conditions: differentiation down the neutrophil lineage for three days; cited from earlier work
[2] = tested on: naïve WAS−/− T cells; test: In vitro Transwell cell migration toward CCL19; format: cell-based, mouse
Procedure: (§1) Cells from the peripheral lymph nodes and the spleen of Balb/c mice and WAS−/− mice on Balb/c background were pooled and enriched using the EasySep Mouse CD8+ T Cell Enrichment Kit from STEMCELL Technologies (British Columbia, Canada). Enrichment was confirmed using fluorescence-activated cell sorting (FACS) by staining the cells with FITC/anti-Thy1.2 and PE/anti-CD8α antibodies (Abs). The memory T cell population was assessed by evaluating the expression of CD44 and CD62L via FACS. T cells in an activation medium with 100 units/mL IL-2 and 1% anti-CD28 Ab were activated by plate-bound anti-CD3 Abs for 4 day at 37° C. The activation medium included RPMI with 10% FBS, 10 mM HEPES (1M), 1% NEAA, 1% sodium pyruvate (100 mM), 50 μM β-mercaptoethanol, 4 mM L-glutamine, and 100 μg/mL Pen/Strep. Cell activation was verified via FACS measurement of CD25. Enriched WT and WAS−/− T cells in DMEM with 1% BSA and 0.1% Pen/Strep were induced to migrate through polycarbonate Transwell inserts (Costar, Cambridge, Mass.) with 5-μm pores in a 24-well plate toward a CCL19 chemokine source (R&D Systems, Minneapolis, Minn.). Inserts contained 5×10^5 cells in 100 μL of medium, and wells contained 1 mL of medium with either no CCL19 or 100 ng/mL of CCL19. Cells were allowed to migrate for ˜7 hours at 37° C., and those that crossed the membrane were collected and used for MPA studies.

[3] = tested on: naïve WT T cells; test: In vitro Transwell cell migration toward CCL19; format: cell-based, mouse; conditions: after CCL19 exposure
Procedure: as §1

[4] = tested on: WAS−/− T cells; test: Micropipette aspiration of chemokine-stimulated T cells; format: cell-based, mouse; conditions: naïve WAS−/− T cells
Procedure: (§2) Micropipettes made using a micropipette puller were trimmed to 2.5-3 or 4.5-5 μm inner diameter for testing naïve and activated T cells. MPA glass chambers consisted of a 24 mm×60 mm microscope coverslip bottom, a U-shaped parafilm spacer, and a 22 mm×22 mm microscope coverslip top. The assembly was baked for two hours at 80° C. to ensure good adhesion between the components.
(§3) Enriched WT and WAS−/− T cells in DMEM with 1% BSA and 0.1% Pen/Strep were induced to migrate through polycarbonate Transwell inserts (Costar, Cambridge, Mass.) with 5-μm pores in a 24-well plate toward a CCL19 chemokine source (R&D Systems, Minneapolis, Minn.). Inserts contained 5×10^5 cells in 100 μL of medium, and wells contained 1 mL of medium with either no CCL19 or 100 ng/mL of CCL19. Cells were allowed to migrate for ˜7 hours at 37° C., and those that crossed the membrane were collected and used for MPA studies.
(§4) 3×10^5 cells in 100 μL RPMI with 10% FBS and 1% HEPES was stained with 10 μL trypan blue. The mixture was added to 600 μL of either the RPMI medium or the T cell activation medium with IL-2 for naïve and activated T cell testing. Migratory T cells were tested in the medium used for migration. The MPA device was based on the design of Hochmuth et al (18). The aspiration rate and volume were 36 mL/hr and 2 mL, corresponding to a total pressure of ˜400 Pa. The cell movement in the micropipette was recorded with a CCD camera. Aspirations were performed at approximately room temperature.
(§5) MPA data were fitting using the half-space model (77) described by the expressions:
(§6) where E is the cell modulus, L is the length from the micropipette opening to the cell leading edge, Δp is the pressure differential at a particular L, ri and ro are the inner and outer […] of the micropipette, and φ is the wall function that is approximately […]. The ImageJ software was used to manually track the change in L. By plotting Δp against ri/L and finding the best linear fit (minimal total error) a modulus could be derived from the slope of the line. […]

[5] = tested on: WT T cells; test: as above; format: cell-based, mouse
Procedure: as §2, §3, §4, §5, §6

Molecule	compliance of differentiated cells relative to control (more compliant) [1]	cells with naïve phenotype (CD62L and CD44 co-staining), FACS ([2]; all three groups (untreated, remained in insert, migrated))	cells migrated ([2]; seven hours exposure to CCL19, 100 ng/mL, 5-μm pore inserts)	migrating cells stained CD62L high and CD44 low (naïve phenotype), FACS [3]	change in modulus before and after the chemokine treatment (Student's t test) [4]	stiffness compared to activated cells ([5]; migratory WT cells after CCL19)	change in modulus before and after the chemokine treatment (Student's t test) ([5]; naïve WT T cells)
CC1=C(/C=C/C(C)=C/C=C/C(C)=C/C(=O)O)C(C)(C)CCC1 [all-trans retinoic acid]	45%						
B1		~90%	~6.4%	~90%	did not pass the 95% significance level; also recorded: insignificant decrease	about 1.4 times	significantly different
